Substitutions are numbered along the chain they refer to. In names and notes the source's numbering stands. Each block holds one binder with its values, some of them ahead of it.
Target: plasma purified human complement protein C3 (human) (UniProt P01024)
Experiment: cell-based or functional assay

Chain of plasma purified human complement protein C3 (human) (P01024 23-667, chain 1 of 2): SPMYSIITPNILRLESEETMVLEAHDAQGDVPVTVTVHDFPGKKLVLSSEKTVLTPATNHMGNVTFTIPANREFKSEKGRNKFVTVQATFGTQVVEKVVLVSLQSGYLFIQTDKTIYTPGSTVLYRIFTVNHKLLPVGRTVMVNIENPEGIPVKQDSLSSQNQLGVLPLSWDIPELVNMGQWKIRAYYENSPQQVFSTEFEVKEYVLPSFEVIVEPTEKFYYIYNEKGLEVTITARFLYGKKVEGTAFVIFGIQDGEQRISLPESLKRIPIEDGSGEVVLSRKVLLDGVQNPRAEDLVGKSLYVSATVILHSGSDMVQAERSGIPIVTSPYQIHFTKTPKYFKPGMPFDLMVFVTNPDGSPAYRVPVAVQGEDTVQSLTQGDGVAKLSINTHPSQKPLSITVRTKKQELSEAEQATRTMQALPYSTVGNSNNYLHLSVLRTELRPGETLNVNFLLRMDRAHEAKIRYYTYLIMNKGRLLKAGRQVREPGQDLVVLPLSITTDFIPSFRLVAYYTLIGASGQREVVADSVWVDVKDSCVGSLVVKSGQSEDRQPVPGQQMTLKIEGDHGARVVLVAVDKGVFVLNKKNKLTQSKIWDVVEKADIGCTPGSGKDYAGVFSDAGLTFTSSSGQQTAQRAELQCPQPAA
Chain of plasma purified human complement protein C3 (human) (P01024 672-1663, chain 2 of 2): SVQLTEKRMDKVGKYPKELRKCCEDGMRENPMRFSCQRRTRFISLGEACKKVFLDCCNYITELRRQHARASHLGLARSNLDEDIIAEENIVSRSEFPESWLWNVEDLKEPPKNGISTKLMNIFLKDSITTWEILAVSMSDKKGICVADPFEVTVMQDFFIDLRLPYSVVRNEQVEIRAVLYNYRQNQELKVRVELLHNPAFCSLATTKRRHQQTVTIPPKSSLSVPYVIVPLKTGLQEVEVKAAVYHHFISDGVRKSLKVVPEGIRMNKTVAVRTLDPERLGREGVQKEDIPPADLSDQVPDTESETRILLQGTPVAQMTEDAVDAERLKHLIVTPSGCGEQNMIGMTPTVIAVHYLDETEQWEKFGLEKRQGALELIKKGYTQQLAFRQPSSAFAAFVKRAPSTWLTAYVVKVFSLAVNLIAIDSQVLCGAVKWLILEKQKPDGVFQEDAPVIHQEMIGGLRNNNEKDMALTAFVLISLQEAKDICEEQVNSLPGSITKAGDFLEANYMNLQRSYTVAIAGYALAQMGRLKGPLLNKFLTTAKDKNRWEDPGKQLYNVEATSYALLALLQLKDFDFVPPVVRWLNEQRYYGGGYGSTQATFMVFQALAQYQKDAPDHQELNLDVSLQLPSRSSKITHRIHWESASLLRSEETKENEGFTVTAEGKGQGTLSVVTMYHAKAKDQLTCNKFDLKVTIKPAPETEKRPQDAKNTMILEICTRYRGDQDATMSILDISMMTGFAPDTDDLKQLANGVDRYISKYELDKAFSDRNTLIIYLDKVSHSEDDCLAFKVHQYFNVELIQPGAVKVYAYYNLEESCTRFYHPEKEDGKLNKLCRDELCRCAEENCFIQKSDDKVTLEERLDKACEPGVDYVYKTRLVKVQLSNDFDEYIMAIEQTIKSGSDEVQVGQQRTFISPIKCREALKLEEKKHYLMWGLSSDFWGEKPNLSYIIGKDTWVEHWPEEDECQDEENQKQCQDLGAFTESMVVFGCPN

EC50 of hC3 cleavage: 5.93 nM
B1: MTSP-1 Q38H/I41A/D60bV/F60eR/Y60gW/ins97aE/F97T/T98G/F99L/C122S/G151H/Q175L/Q192D (enzyme)
chain: VVGGTDADEGEWPWQVSLHALGHGHACGASLISPNWLVSAAHCYIDVRGRRWSDPTQWTAFLGLHDQSQRSAPGVQERRLKRIISHPFFNDTEGLDYDIALLELEKPAEYSSMVRPISLPDASHVFPAGKAIWVTGWGHTQYGGTHALILQKGEIRVINQTTCENLLPQLITPRMMCVGFLSGGVDSCDGDSGGPLSSVEADGRIFQAGVVSWGDGCAQRNKPGVYTRLPLFRDWIKENTGV

EC50 hC3 cleavage: 1.17 nM
B2: MTSP-1 protease domain Q38H/I41S/D60bT/F60eS/Y60gW/D96F/F97D/ins97aE/T98S/F99L/C122S/G151H/Q175L/Q192A (enzyme)
chain: B1 chain with A26S, V47T, R50S, D91F, T92D, G94S, D189A

EC50 hC3 cleavage: 1.83 nM
B3: MTSP-1 protease domain Q38H/I41A/D60bV/F60eR/Y60gW/D96P/ins97aN/F97W/T98G/F99L/C122S/G151H/Q175L/Q192D (enzyme)
chain: B1 chain with D91P, T92W, E93N

EC50 hC3 cleavage: 4.13 nM
B4: MTSP-1 protease domain Q38H/I41S/D60bT/F60eS/Y60gW/D96Y/ins97aV/F97E/T98G/F99L/C122S/G151N/Q175L/Q192D (enzyme)
chain: B1 chain with A26S, V47T, R50S, D91Y, T92E, E93V, H146N

EC50 of hC3 cleavage: 12.9 nM
B5: MTSP-1 Q38H/I41S/D60bS/F60eQ/Y60gF/ins97aV/F97D/T98P/F99L/C122S/H143R/G151N/Q175L/Q192T (enzyme)
chain: B1 chain with A26S, V47S, R50Q, W52F, T92D, E93V, G94P, H139R, H146N, D189T

EC50 hC3 cleavage: 1.11 nM
B6: MTSP-1 protease domain Q38H/I41A/D60bV/F60eR/Y60gW/D96P/ins97aN/F97W/T98G/F99L/C122S/G151H/Q175L/Q192E (enzyme)
chain: B1 chain with D91P, T92W, E93N, D189E

EC50 of hC3 cleavage: 2.23 nM
B7: MTSP-1 Q38H/I41A/D60bV/F60eR/Y60gW/D96I/ins97aN/F97Y/T98G/F99L/C122S/G151N/Q175L/Q192D (enzyme)
chain: B1 chain with D91I, T92Y, E93N, H146N

EC50 hC3 cleavage: 4.6 nM
B8: MTSP-1 protease domain Q38H/I41A/D60bV/F60eR/Y60gW/D96Q/F97E/ins97aD/T98S/F99L/C122S/G151N/Q175L/Q192R (enzyme)
chain: B1 chain with D91Q, T92E, E93D, G94S, H146N, D189R

EC50 of hC3 cleavage: 1.51 nM
B9: MTSP-1 Q38H/I41A/D60bV/F60eR/Y60gW/D96P/ins97aN/F97W/T98G/F99L/C122S/G151N/Q175L/Q192E (enzyme)
chain: B1 chain with D91P, T92W, E93N, H146N, D189E

EC50 hC3 cleavage: 1.57 nM
B10: MTSP-1 protease domain Q38H/I41A/D60bV/F60eR/Y60gW/D96I/ins97aN/F97Y/T98G/F99L/C122S/G151H/Q175L/Q192D (enzyme)
chain: B1 chain with D91I, T92Y, E93N

EC50 hC3 cleavage: 2.54 nM
B11: MTSP-1 protease domain Q38H/I41A/D60bV/F60eR/Y60gW/D96P/ins97aN/F97W/T98G/F99L/C122S/G151N/Q175L/Q192D (enzyme)
chain: B1 chain with D91P, T92W, E93N, H146N

EC50 of hC3 cleavage: 7.09 nM
B12: MTSP-1 Q38H/I41S/D60bT/F60eS/Y60gW/D96K/ins97aA/F97D/T98P/F99L/C122S/G151H/Q175L/Q192D (enzyme)
chain: B1 chain with A26S, V47T, R50S, D91K, T92D, E93A, G94P

EC50 of hC3 cleavage: 9.75 nM
B13: MTSP-1 Q38H/I41T/D60bV/F60eR/Y60gW/D96I/ins97aN/F97Y/T98G/F99L/C122S/G151N/Q175L/Q192D (enzyme)
chain: B1 chain with A26T, D91I, T92Y, E93N, H146N

EC50 of hC3 cleavage: 4.62 nM
B14: MTSP-1 Q38H/I41S/D60bT/F60eS/Y60gW/D96Y/ins97aV/F97E/T98G/F99L/C122S/G151H/Q175L/Q192D (enzyme)
chain: B1 chain with A26S, V47T, R50S, D91Y, T92E, E93V

EC50 hC3 cleavage: 1.59 nM
B15: MTSP-1 protease domain Q38H/I41S/D60bT/F60eS/Y60gW/D96L/ins97aG/F97D/T98N/F99L/C122S/G151H/Q175L/Q192E (enzyme)
chain: B1 chain with A26S, V47T, R50S, D91L, T92D, E93G, G94N, D189E

EC50 of hC3 cleavage: 4.36 nM
B16: MTSP-1 Q38H/I41A/D60bV/F60eR/Y60gW/D96Y/ins97aI/F97E/T98N/F99M/C122S/G151N/Q175L/Q192V (enzyme)
chain: B1 chain with D91Y, T92E, E93I, G94N, L95M, H146N, D189V

EC50 hC3 cleavage: 6.86 nM
B17: MTSP-1 protease domain Q38H/I41S/D60bT/F60eS/Y60gW/D96K/ins97aV/F97G/T98P/F99L/C122S/G151H/Q175L/Q192D (enzyme)
chain: B1 chain with A26S, V47T, R50S, D91K, T92G, E93V, G94P

EC50 of hC3 cleavage: 2.07 nM
B18: MTSP-1 Q38H/I41A/D60bV/F60eR/Y60gW/D96S/ins97aR/F97A/T98S/F99L/C122S/G151N/Q175L/Q192T (enzyme)
chain: B1 chain with D91S, T92A, E93R, G94S, H146N, D189T

EC50 of hC3 cleavage: 4.58 nM
B19: MTSP-1 Q38H/I41S/D60bF/F60eQ/Y60gF/ins97aV/F97D/T98P/F99L/C122S/H143A/G151N/Q175L/Q192A (enzyme)
chain: B1 chain with A26S, V47F, R50Q, W52F, T92D, E93V, G94P, H139A, H146N, D189A

EC50 of hC3 cleavage: 45.8 nM
B20: MTSP-1 Q38H/I41S/D60bT/F93L/ins97aV/F97D/T98P/F99L/S115N/C122S/Q192V/F208L/D217Q (enzyme)
chain: VVGGTDADEGEWPWQVSLHALGHGHSCGASLISPNWLVSAAHCYIDTRGFRYSDPTQWTAFLGLHDQSQRSAPGVQERRLKRIISHPLFNDDVPLDYDIALLELEKPAEYNSMVRPISLPDASHVFPAGKAIWVTGWGHTQYGGTGALILQKGEIRVINQTTCENLLPQQITPRMMCVGFLSGGVDSCVGDSGGPLSSVEADGRILQAGVVSWGQGCAQRNKPGVYTRLPLFRDWIKENTGV

EC50 of hC3 cleavage: 1.97 nM
B21: MTSP-1 Q38H/I41S/D60bY/D96Y/ins97aV/F97D/T98P/F99L/L106M/C122S/I136M/Q192G/Q209L/D217T (enzyme)
chain: B20 chain with T47Y, L88F, D91Y, L102M, N111S, I132M, V189G, L206F, Q207L, Q215T

EC50 of hC3 cleavage: 50 nM
B22: MTSP-1 L33M/Q38H/I41A/D60bA/ins97aV/F97D/T98P/F99L/C122S/Q192G/D217N (enzyme)
chain: B20 chain with L18M, S26A, T47A, L88F, N111S, V189G, L206F, Q215N

Reference: patent US20240018502A1
